According to IntAct's records for PubMed 14669021:

B1: Protein ORD (Drosophila melanogaster (Fruit fly)), Q24434 (parent)
chain: MYGETTLNKNHVIKFIKLKINNCLGCDEVEINFSKADNVHIIIYSLVTDMAKDLPAVTPVAQAILLLCSLTYPDSDSLETIPQLKIGKGSVSMSFKVYPVNKEEETEPESESDLDEGPSTSKQALERMVQRAERKAKEASTRNVHSKGIYVNVERRFDMYFALDTVSYYINGGKRQSCPLPEFHAKFFVRPQHSINLLRQLHEKCSGNWLKVIQSDGDGDAFKKFKDPDSPFETFVKLFESNPIKPNDMMGKLAKTCLHVNEAVRLTEREFILEVFNQVRHIFEYITAQEYTVWFLVPCLGDKDQLRSKTLEDFDLTKVRTSIRRAGDTSNIWWDHTDHNIKDILLVAFQLDLATHVNQSVLVISHLETLAEFSTMQYVTAFFMNDFYAKKNTEPKWICHRYLERIIDVALFLGVIVIIEYPSAFTLLQEGRHLIKCFQKENADSSRTSQWEIFEDVVKENESDLEFLKEAVGKVQQNV
partner: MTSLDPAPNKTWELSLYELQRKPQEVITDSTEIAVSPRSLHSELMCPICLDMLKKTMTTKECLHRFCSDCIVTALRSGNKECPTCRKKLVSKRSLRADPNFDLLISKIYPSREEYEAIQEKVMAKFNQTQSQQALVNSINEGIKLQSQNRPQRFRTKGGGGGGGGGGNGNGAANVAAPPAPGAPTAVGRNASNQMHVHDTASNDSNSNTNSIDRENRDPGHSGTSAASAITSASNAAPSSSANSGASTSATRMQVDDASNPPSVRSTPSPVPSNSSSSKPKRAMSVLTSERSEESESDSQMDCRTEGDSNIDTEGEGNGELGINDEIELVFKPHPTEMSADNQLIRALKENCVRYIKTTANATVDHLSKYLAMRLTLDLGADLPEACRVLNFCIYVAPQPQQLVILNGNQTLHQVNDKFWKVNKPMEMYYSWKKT

Variants of: B1
Settings: with ring1_drome Sce

effect of a mutation on the interaction	Variant
decreasing interaction	MYGETTLNKNHVIKFIKLKINNCLGCDEVEINFSKADNVHIIIYSLVTDMAKDLPAVTPVAQAILLLCSLTYPDSDSLETIPQLKIGKGSVSMSFKVYPVNKEEETEPESESDLDEGPSTSKQALERMVQRAERKAKEASTRNVHSKGIYVNVERRFDMYFALDTVSYYINGGKRQSCPLPEFHAKFFVRPQHSINLLRQLHEKCSGNWLKVIQSDGDGDAFKKFKDPDSPFETFVKLFESNPIKPNDMMGKLAKTCLHVNEAVRLTEREFILEVFNQVRHIFEYITAQEYTVWFLVPCLGDKDQLRSKTLEDFDLTKVRTSIRRAGDTSNIWWDHTDHNIKDILLVAFQLDLATHVNQSVLVISHLETLAEFSTMQYVTAFFMNDFYAKKNTEPKWICHRYLERIIDVALFLGVIDIIEYPSAFTLLQEGRHLIKCFQKENADSSRTSQWEIFEDVVKENESDLEFLKEAVGKVQQNV [V417D]
